The results in this text go back to PMC4699842, “Synthetic prions with novel strain-specified properties” (PLoS Pathogens, 2015).

This series deals with the molecule itself. Nature of the series: thioflavin-T fibrillization assay.

B1: recombinant mouse prion protein residues 23-231 (recMoPrP(23–231)) (natural protein)
chain: not shown
notes: also called recPrP; rec full-length mouse (Mo) PrP
Consider B1, for which the binding result is on record as “binds”.
